According to paper PMC4824113:
“And” between values parts separate entries of the source, which are not always exact repeats. Equal values may be shown once.

What was measured:
[1] = target: TaXPD 107C-312C C (crosslinked) (Thermoplasma acidophilum) (UniProt Q9HM14); test: fluorescence anisotropy; conditions: Anisotropy: 20 mM MES pH 6.4, 1 mM DTT, 1 mM MgCl2, 100 nM DNA, +/- 1 mM AMPPNP, temperature not stated; trapping: 20 mM Tris-HCl pH 8.3-8.5, 50 mM NaCl, 4 C …
[2] = target: TaXPD 100C-238C C (crosslinked) (Thermoplasma acidophilum) (UniProt Q9HM14); test: fluorescence anisotropy; conditions: Anisotropy: 20 mM MES pH 6.4, 1 mM DTT, 1 mM MgCl2, 100 nM DNA, +/- 1 mM AMPPNP, temperature not stated; trapping: 20 mM Tris-HCl pH 8.3-8.5, 50 mM NaCl, 4 C …

TACGACAGAGAAGAGACGAGCATTTTTGCTCGGAAGGA [3'-fluorescein hairpin DNA with 5' overhang]
Kd [1]: 0.3 µM and 0.4 µM
Kd [2]: 0.6 µM and 0.5 µM
